As a reminder, the IC50 is the concentration that gives 50% inhibition. A high value points to weaker potency.

For test [1], the target named is T1, HLA-A*0301 (human).
T1 construct: also called HLA-A3
Briefly: inhibition of 125I-labelled probe peptide binding to purified HLA-A*0301, gel filtration; ratio to standard peptide 941.12 [..] (11 nM). For orientation: In gel filtration, larger molecules generally elute earlier.

In test [2] the target is HLA-B*5301 (human). Briefly: competition vs 125I-labelled probe peptide, purified HLA, gel filtration.
Test [3] addresses HLA-B*0702 (human). Described as above.
In test [4] the target is HLA-B*5401 (human). The description is as above.
In test [5] the target is HLA-B*5101 (human). Described as above.
The target of test [6] is HLA-B*3501 (human). The test is described as above.
The target in test [7] is T2, HLA-A*0201 (human).
T2 construct: also called HLA-A2.1
Briefly: inhibition of 125I-labelled probe peptide binding to purified HLA, gel filtration.

B1: HER2/neu peptide, position 822, 10 amino acids (peptide)
peptide: LLNWCMQIAK
notes: Synthetic peptide
Take B1: the “relative binding ratio (IC50 of standard peptide / IC50 of test peptide)” value in test [1] was found to be 0.14.

B2: Her2/neu.995.F1 (peptide)
peptide: FPASPLDSTF
notes: 10-mer analog of the HER2/neu peptide starting at position 995
Turning to B2, the IC50 in test [2] is 10 nM; in test [3], 3.7 nM; in test [4], 200 nM; in test [5], 579 nM; in test [6] it was 10 nM.

B3: HER2/neu peptide, position 664, 10 amino acids (peptide)
peptide: VVVLGVVFGI
notes: Synthetic peptide
In the case of B3, the relative binding ratio in test [7] was 0.0032 ratio (IC50 of standard peptide / IC50 of test peptide).

B4: HER2/neu peptide, position 674, 10 amino acids (peptide)
peptide: LIKRRQQKIR
notes: Synthetic peptide; also called Her2/neu.674 (10-mer)
B4: in test [1], the “relative binding ratio (IC50 of standard peptide / IC50 of test peptide)” value was 0.0002.

B5: HER2/neu peptide, position 658, 9 amino acids (peptide)
peptide: VVGILLVVV
notes: Synthetic peptide
Consider B5, for which the relative binding ratio in test [7] was 0.0005 ratio (IC50 of standard peptide / IC50 of test peptide).

B6: HER2/neu peptide, position 666, 9 amino acids (peptide)
peptide: VLGVVFGIL
notes: Synthetic peptide; also called HER2/neu 666-674
Consider B6, for which the relative binding ratio in test [7] is 0.0005 ratio (IC50 of standard peptide / IC50 of test peptide).

B7: Her2/neu.1101.F1I9 (peptide)
peptide: FPTHDPSPI
As for B7, the IC50 was found to be 274 nM in test [2]; 108 nM in test [3]; 50 nM in test [4]; 56 nM in test [5]; 600 nM in test [6].

B8: HER2/neu peptide, position 658, 10 amino acids (peptide)
peptide: VVGILLVVVL
notes: Synthetic peptide
On to B8, for which the relative binding ratio in test [7] is 0.0009 ratio (IC50 of standard peptide / IC50 of test peptide).

B9: HER2/neu peptide, position 402, 9 amino acids (peptide)
peptide: TLEEITGYL
notes: Synthetic peptide; also called HER2/neu 402-410
Turning to B9, the relative binding ratio in test [7] was 0.0018 ratio (IC50 of standard peptide / IC50 of test peptide).

B10: HER2/neu peptide, position 411, 9 amino acids (peptide)
peptide: YISAWPDSL
notes: Synthetic peptide
Regarding B10, the relative binding ratio in test [7] was 0.0003 ratio (IC50 of standard peptide / IC50 of test peptide).

B11: HER2/neu peptide, position 889, 10 amino acids (peptide)
peptide: MALESILRRR
notes: Synthetic peptide
Take B11: the “relative binding ratio (IC50 of standard peptide / IC50 of test peptide)” value in test [1] came out at 0.0011.

B12: HER2/neu peptide, position 452, 10 amino acids (peptide)
peptide: WLGLRSLREL
notes: Synthetic peptide; also called HER2/neu 452-461
For the molecule B12, the relative binding ratio in test [7] was 0.0001 ratio (IC50 of standard peptide / IC50 of test peptide).

B13: Her2/neu.1073.F1I9 (peptide)
peptide: FPLAPSEGI
notes: 9-mer analog of the HER2/neu peptide starting at position 1073
For B13, the IC50 in test [2] was found to be 239 nM; in test [3], 100 nM; in test [4] it was 5.9 nM; in test [5], 204 nM; in test [6] it was 554 nM.

B14: HER2/neu peptide, position 181, 10 amino acids (peptide)
peptide: LTLIDTNRSR
notes: Synthetic peptide; also called Her2/neu.181 (10-mer)
Turning to B14, the “relative binding ratio (IC50 of standard peptide / IC50 of test peptide)” value in test [1] was 0.0002.

B15: HER2/neu peptide, position 360, 9 amino acids (peptide)
peptide: NIQEFAGCK
notes: Synthetic peptide; also called Her2/neu.360 (9-mer)
In the case of B15, the “relative binding ratio (IC50 of standard peptide / IC50 of test peptide)” value in test [1] came out at 0.0002.

B16: HER2/neu peptide, position 665, 10 amino acids (peptide)
peptide: VVLGVVFGIL
notes: Synthetic peptide; also called HER2/neu 665-674
As to B16, the relative binding ratio in test [7] is 0.0027 ratio (IC50 of standard peptide / IC50 of test peptide).

B17: HER2/neu peptide, position 546, 10 amino acids (peptide)
peptide: VLQGLPREYV
notes: Synthetic peptide
As for B17, the relative binding ratio in test [7] is 0.0009 ratio (IC50 of standard peptide / IC50 of test peptide).

B18: HER2/neu peptide, position 725, 10 amino acids (peptide)
peptide: VLGSGAFGTV
notes: Synthetic peptide; also called HER2/neu 725-734
For B18, in test [7], the relative binding ratio is 0.0007 ratio (IC50 of standard peptide / IC50 of test peptide).

B19: Her2/neu.1157.F1I11 (peptide)
peptide: FPAARPAGATI
notes: 11-mer analog of the HER2/neu peptide starting at position 1157
With B19, the IC50 turned out to be 332 nM in test [2]; 39 nM in test [3]; 50 nM in test [4]; 13 nM in test [5]; 4240 nM in test [6].

B20: HER2/neu peptide, position 1172, 10 amino acids (peptide)
peptide: TLSPGKNGVV
notes: Synthetic peptide; also called HER2/neu 1172-1181
Consider B20, for which the relative binding ratio in test [7] was 0.0001 ratio (IC50 of standard peptide / IC50 of test peptide).

B21: HER2/neu peptide, position 960, 9 amino acids (peptide)
peptide: MIDSECRPR
notes: Synthetic peptide; also called Her2/neu.960 (9-mer)
With B21, the “relative binding ratio (IC50 of standard peptide / IC50 of test peptide)” value in test [1] was found to be 0.0017.

B22: HER2/neu peptide, position 1196, 9 amino acids (peptide)
peptide: YLTPQGGAA
notes: Synthetic peptide; also called HER2/neu 1196-1204
As for B22, the relative binding ratio in test [7] is 0.0001 ratio (IC50 of standard peptide / IC50 of test peptide).

B23: Her2/neu.1155.F1I9 (peptide)
peptide: FPLPAARPI
notes: 9-mer analog of the HER2/neu peptide starting at position 1155
For the molecule B23, the IC50 in test [2] was found to be 282 nM; in test [3], 6.5 nM; in test [4], 3.8 nM; in test [5], 7.1 nM; in test [6], 600 nM.

B24: HER2/neu peptide, position 303, 10 amino acids (peptide)
peptide: YLSTDVGSCT
notes: Synthetic peptide
Turning to B24, the relative binding ratio in test [7] was 0.0002 ratio (IC50 of standard peptide / IC50 of test peptide).

B25: Her2/neu.998.F1I11 (peptide)
peptide: FPLDSTFYRSI
notes: 11-mer analog of the HER2/neu peptide starting at position 998
B25: the IC50 was determined as 620 nM in test [2]; 229 nM in test [3]; 2.4 nM in test [4]; 46 nM in test [5]; 2670 nM in test [6].

B26: Her2/neu.998.F1 (peptide)
peptide: FPLDSTFYRSL
notes: as for B25
Regarding B26, the IC50 in test [2] turned out to be 1190 nM; in test [3] it was 42 nM; in test [4], 2.7 nM; in test [5], 324 nM; in test [6], 400 nM.

B27: HER2/neu peptide, position 360, 10 amino acids (peptide)
peptide: NIQEFAGCKK
notes: Synthetic peptide; also called Her2/neu.360 (10-mer)
Consider B27, for which the “relative binding ratio (IC50 of standard peptide / IC50 of test peptide)” value in test [1] was determined as 0.0003.

B28: HER2/neu peptide, position 841, 9 amino acids (peptide)
peptide: LVHRDLAAR
notes: Synthetic peptide; also called Her2/neu.841 (9-mer)
In the case of B28, the “relative binding ratio (IC50 of standard peptide / IC50 of test peptide)” value in test [1] worked out at 0.004.

B29: HER2/neu peptide, position 726, 10 amino acids (peptide)
peptide: LGSGAFGTVY
notes: Synthetic peptide; also called Her2/neu.726 (10-mer)
Turning to B29, in test [1], the “relative binding ratio (IC50 of standard peptide / IC50 of test peptide)” value was 0.0003.

B30: Her2/neu.1151.F1I10 (peptide)
peptide: FPREGPLPAI
notes: 10-mer analog of the HER2/neu peptide starting at position 1151
Consider B30, for which the IC50 worked out at 620 nM in test [2]; 20 nM in test [3]; 3.4 nM in test [4]; 20 nM in test [5]; 7200 nM in test [6].

B31: HER2/neu peptide, position 154, 10 amino acids (peptide)
peptide: LIQRNPQLCY
notes: Synthetic peptide; also called Her2/neu.154 (10-mer)
Regarding B31, the “relative binding ratio (IC50 of standard peptide / IC50 of test peptide)” value in test [1] was 0.0012.

B32: HER2/neu peptide, position 915, 9 amino acids (peptide)
peptide: LMTFGAKPY
notes: Synthetic peptide; also called Her2/neu.915 (9-mer)
On to B32, for which the “relative binding ratio (IC50 of standard peptide / IC50 of test peptide)” value in test [1] turned out to be 0.0002.

B33: HER2/neu peptide, position 1014, 10 amino acids (peptide)
peptide: MGDLVDAEEY
notes: Synthetic peptide; also called Her2/neu.1014 (10-mer)
On to B33, for which the “relative binding ratio (IC50 of standard peptide / IC50 of test peptide)” value in test [1] worked out at 0.0002.

B34: Her2/neu.1120.F1I9 (peptide)
peptide: FPSETDGYI
As for B34, the IC50 in test [2] came out at 37 nM; in test [3], 220 nM; in test [4], 156 nM; in test [5], 31 nM; in test [6], 655 nM.

B35: Her2/neu.1120.F1 (peptide)
peptide: FPSETDGYV
Consider B35, for which the IC50 turned out to be 517 nM in test [2]; 204 nM in test [3]; 26 nM in test [4]; 32 nM in test [5]; 809 nM in test [6].

B36: HER2/neu peptide, position 745, 9 amino acids (peptide)
peptide: NVKIPVAIK
notes: Synthetic peptide; also called Her2/neu.745 (9-mer)
Regarding B36, the “relative binding ratio (IC50 of standard peptide / IC50 of test peptide)” value in test [1] was found to be 0.0058.

(Values after patent US20040018971A1 (published 2004).)
